Measurements reported in patent publication US6801029B2, “Microwave dielectric spectroscopy method and apparatus” (Wisconsin Alumni Research Foundation, priority 2001, dated 2004).

Columns and labels:
[1] = Thermal unfolding of RNase A by microwave dielectric spectroscopy (slot antenna s11 log mag, Lorentzian peak positions fitted to 2-state model); assay type: physicochemical
From the text: A coaxial-fed slot antenna 25 was manufactured from RO-4002 (Rogers Corporation, Rogers, Conn.) on a LPKF ProtoMat using BoardMaster 3.0 (LPKF Laser & Electronics AG, Germany). The coaxial feed was composed of semi-rigid PE-047SR (Pasternack Enterprises, Irvine, Calif.). The dimensions of the antenna were chosen to yield a resonant frequency of approximately 3 GHz. This frequency was selected to optimize the interaction of microwave radiation with “bound water,” assumed to undergo dispersion at lower frequencies than bulk solution. The active range of the antenna extends from approximately 500 MHz to 6.5 GHz. The antenna was attached to a 0.5 cm Suprasil fused quartz UV/VIS cuvette 21 (Hellma GmbH & Co., Germany).
Microwave measurements were made utilizing as the analyzer 37 a Hewlett-Packard 8720D vector network analyzer (VNA) (Agilent Technologies, Palo Alto, Calif.) set to measure s11. The lowest power range −15 to +5 dBm was used for all experiments. The slot antenna 25 was attached to the VNA 37 using a standard 50 Ω coaxial cable 35. UV/VIS absorption measurements were performed using a Hewlett-Packard 8452A diode-array spectrophotometer with a water-thermostatted cell holder (Agilent Technologies, Palo Alto, Calif.), functioning as the optical spectrometer 28 with detector 32. Both instruments were controlled using LabView (National Instruments Corporation, Austin, Tex.) via a GPIB connection.
Data analysis was performed in one of two ways: 1) Center frequency was determined by fitting spectra at each change of temperature or other environmental conditions to a number of Lorentzian peaks; or 2) Peak amplitude was determined for spectra at each change of temperature or other environmental condition. Commercial software such as Microcal Origin was used for both types of fitting. Data, either center frequency or amplitude, could be then plotted as a function of environmental condition and subjected to further analysis. For thermal unfolding experiments, peak center frequency determination yielded better results, perhaps because many peaks overlap. Peak amplitude determination was more successful for hormone binding experiments, probably because peaks were well-spaced and non-overlapping.
(§1) Bovine pancreatic ribonuclease A (RNase A) was purchased from Sigma (St. Louis, Mo.) and used without further purification. All other reagents were purchased from Fisher Scientific (Pittsburgh, Pa.). Lyophilized protein was dissolved in a solution of 30 mM sodium acetate/acetic acid, 100 mM sodium chloride, pH 4.5, then dialyzed exhaustively before use. Protein concentrations were determined by UV-VIS spectroscopy. The extinction coefficient was taken as 0.72 mg^−1mL cm^−1 at 278 nm. Concentrations of RNase A varied from 0.2 to 1 mg/mL (14.6 to 73.0 μM). The environmental condition of the sample that was changed was temperature. RNase A was unfolded reversibly by increasing the temperature of the sample at a maximum rate of 0.4° C./min. The unfolding reaction was monitored using UV/VIS absorbance at 288 nm.
As with buffer alone, peak positions shift with temperature, and most peaks broaden with increasing temperature.
Spectra were fitted to eight Lorentzian peaks. […] Four peaks, identified in Table 1 below, responded in a sigmoidal fashion characteristic of cooperative unfolding; the remaining peaks increased or decreased monotonically with temperature.

[2] = Thermal unfolding of RNase A monitored by UV/VIS absorbance at 288 nm, two-state model; assay type: physicochemical
Procedure: as §1
The unfolding of RNase A may be observed using UV/VIS absorbance. At low protein concentrations, the absorbance of RNase A follows Beer's Law:
where A(λ) is the absorbance, ε(λ,T) is the extinction coefficient, c is the protein concentration, and l is the path length. For selected proteins, the extinction coefficient ε depends not only on the wavelength λ and the temperature T, but also on the protein conformation. Such a dependence of ε on conformation is called a hyperchromic shift. For RNase A, the maximal hyperchromic shift occurs at approximately 288 nm.
Here, N refers to native protein, U refers to unfolded protein, Tm is the midpoint temperature (at which FN=FU=0.5 and ΔG=0 kcal/mol), ΔHm is the enthalpy at the midpoint temperature, α is the observed signal (in this case, UV/VIS absorbance), and αN and αU are the observed signals for native and unfolded protein, respectively. Since the unfolding of RNase A is a unimolecular reaction, thermodynamic parameters such as enthalpy, free energy, and mid-point temperature are independent of concentration. […] Analysis of unfolding of RNase A yields an average Tm of 58.2° C. and an average ΔHm of 74.9 kcal/mol.
Other researchers have implied that the presence of microwave radiation destabilizes protein, and may enhance rates of folding and unfolding. […] The differences in Tm and ΔHm are within experimental error and are not thought to be significant.

[3] = Lorentzian peak 1 (1.5 GHz at 30° C.)
[4] = Lorentzian peak 4 (3.1 GHz at 30° C.)
[5] = Lorentzian peak 5 (3.5 GHz at 30° C.)
[6] = Lorentzian peak 7 (4.4 GHz at 30° C.)
[7] = simultaneous UV/VIS and microwave measurements

B1: Bovine pancreatic ribonuclease A (protein, UniProt P61823 27-150, looked up)
Ribonuclease pancreatic: KETAAAKFERQHMDSSTSAASSSNYCNQMMKSRNLTKDRCKPVNTFVHESLADVQAVCSQKNVACKNGQTNCYQSYSTMSITDCRETGSSKYPNCAYKTTQANKHIIVACEGNPYVPVHFDASV
notes: Bovine pancreatic ribonuclease A purchased from Sigma, used without further purification
[1]; [3]
  Tm: 50.4 °C
  ΔHm: 66.0 kcal/mol
[1]; [4]
  Tm: 58.3 °C
  ΔHm: 161.4 kcal/mol
[1]; [5]
  Tm: 53.3 °C
  ΔHm: 72.1 kcal/mol
[1]; [6]
  Tm: 60.9 °C
  ΔHm: 76.8 kcal/mol
[1]; fit to all peaks (1, 4, 5, 7)
  Tm: 55.21 °C
  ΔHm: 54.2 kcal/mol
[2]; UV/VIS alone
  Tm: 58.09 °C
  ΔHm: 76.8 kcal/mol
[2]; average, UV/VIS absorbance 288 nm, 30 mM sodium acetate/acetic acid, 100 mM NaCl, pH 4.5
  average Tm (midpoint temperature of unfolding): 58.2 °C
[2]; average, UV/VIS absorbance 288 nm, pH 4.5 buffer
  average ΔHm (enthalpy at midpoint temperature): 74.9 kcal/mol
[2]; [7]
  Tm: 58.91 °C
  ΔHm: 65.1 kcal/mol
